Consider two molecules from article PMC4309261.

For this data set, the target named is Sp1 (UniProt P08047 2-785). The experiment in a line: EMSA.
Sequence of Sp1 (P08047 2-785): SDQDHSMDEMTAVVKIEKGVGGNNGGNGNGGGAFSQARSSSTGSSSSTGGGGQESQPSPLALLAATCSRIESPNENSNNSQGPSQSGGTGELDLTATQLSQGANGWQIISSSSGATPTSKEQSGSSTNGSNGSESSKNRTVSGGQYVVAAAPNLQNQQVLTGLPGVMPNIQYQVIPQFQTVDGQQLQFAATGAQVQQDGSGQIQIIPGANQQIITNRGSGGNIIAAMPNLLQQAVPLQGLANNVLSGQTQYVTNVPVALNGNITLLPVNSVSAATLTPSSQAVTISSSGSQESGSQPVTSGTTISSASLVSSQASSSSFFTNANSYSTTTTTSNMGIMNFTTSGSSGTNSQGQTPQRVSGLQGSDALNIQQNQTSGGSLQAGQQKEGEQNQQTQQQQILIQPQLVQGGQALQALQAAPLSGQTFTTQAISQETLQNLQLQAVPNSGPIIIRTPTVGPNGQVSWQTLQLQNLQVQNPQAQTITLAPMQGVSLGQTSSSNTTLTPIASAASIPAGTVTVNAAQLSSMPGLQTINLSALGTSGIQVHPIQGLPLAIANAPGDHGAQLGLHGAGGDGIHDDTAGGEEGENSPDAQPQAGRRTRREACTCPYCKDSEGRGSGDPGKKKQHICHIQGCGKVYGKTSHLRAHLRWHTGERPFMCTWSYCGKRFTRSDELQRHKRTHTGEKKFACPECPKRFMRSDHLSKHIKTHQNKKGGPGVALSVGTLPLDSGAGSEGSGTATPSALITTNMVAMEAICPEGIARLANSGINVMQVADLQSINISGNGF

B1: EZH2 promoter GC-rich oligo, mutant (dsDNA)
DNA 1: ACTTGGCTTCCAGCACCCGAAAAGCTTCTCCAACGTTCGGGAACTCTGCGGCGCCG
DNA 2: CGGCGCCGCAGAGTTCCCGAACGTTGGAGAAGCTTTTCGGGTGCTGGAAGCCAAGT
As to B1, the binding result is listed as “no binding”.

B2: EZH2 promoter GC-rich oligo, wild type (dsDNA)
DNA 1: ACTTGGCTTCCAGCACCCGCCCCGCCCCTCCCCCGCCCGGGAACTCTGCGGCGCCG
DNA 2: CGGCGCCGCAGAGTTCCCGGGCGGGGGAGGGGCGGGGCGGGTGCTGGAAGCCAAGT
With B2, the binding result is on record as “binds”.
